We go through six molecules from patent US20220017635A1 (Kyowa Kirin, published 2022).

Some results are limits rather than exact numbers.

For assay [1], the target named is T1, human EGFR-FLAG-Fc (human, UniProt P00533 25-638).
T1 construct: also called human EGFR-Fc
The assay can be described thus: phage ELISA (scFv) on immobilized human EGFR-Fc. (In general: ELISA stands for enzyme-linked immunosorbent assay.)
Description: (§1) Specifically, it was carried out by adding a phage solution diluted with PBS-T containing 10% Block Ace (manufactured by Dainippon Pharmaceutical Co., Ltd.) to a 96-well immunoplate (NUNC, Inc.) on which an antigen protein was immobilized to allow a reaction to proceed at room temperature for 1 hour, followed by washing with PBS-T, and then, adding an anti-M13 antibody (manufactured by GE Healthcare, Inc.) labeled with horseradish peroxidase diluted with 1% BSA-PBS thereto to allow a reaction to proceed at room temperature for 1 hour.
(§2) The confirmation of a clone that specifically recognizes human and monkey EGFR-Fc was carried out by the ELISA method.

A further assay deals with T2, monkey EGFR-FLAG-Fc (monkey, UniProt P55245 25-638).
T2 construct: also called monkey EGFR-Fc; not shown: FLAG-Fc added to the C terminus
Description: phage ELISA (scFv) on immobilized monkey EGFR-Fc.

Assay [2] deals with T3, human EGFR on cells (human, UniProt P00533 25-1210).
T3 construct: also called membrane-associated EGFR on OE21 cells
The assay can be described thus: flow cytometry on OE21 cells; x axis Alexa Fluor 488-A [B]. A general note: In flow cytometry, cells or beads pass a laser one at a time.

In assay [3] the target is T3, human EGFR on cells. Description: flow cytometry on OE21 cells; x axis Alexa Fluor 488-A [C].
In assay [4] the target is T3, human EGFR on cells. The assay can be described thus: flow cytometry on OE21 cells; x axis Alexa Fluor 488-A [A].
Assay [5] has as its target T3, human EGFR on cells. Description: flow cytometry on OE21 cells; x axis PE-A [D].
Assay [6] has as its target T1, human EGFR-FLAG-Fc. The assay can be described thus: phage ELISA on immobilized EGFR-Fc (Example 5).
Another assay has as its target T4, mouse TfR on CHO cells (mouse, UniProt Q62351 1-763).
T4 construct: also called mouse TfR/CHO
The assay can be described thus: flow cytometry on mouse TfR/CHO cells.

The target of assay [7] is T5, huTfR with mouse apical domain (human/mouse chimera, UniProt P02786 89-760).
T5 construct: His tag added; also called chimeric protein of human TfR extracellular domain with mouse apical domain
T5 chain: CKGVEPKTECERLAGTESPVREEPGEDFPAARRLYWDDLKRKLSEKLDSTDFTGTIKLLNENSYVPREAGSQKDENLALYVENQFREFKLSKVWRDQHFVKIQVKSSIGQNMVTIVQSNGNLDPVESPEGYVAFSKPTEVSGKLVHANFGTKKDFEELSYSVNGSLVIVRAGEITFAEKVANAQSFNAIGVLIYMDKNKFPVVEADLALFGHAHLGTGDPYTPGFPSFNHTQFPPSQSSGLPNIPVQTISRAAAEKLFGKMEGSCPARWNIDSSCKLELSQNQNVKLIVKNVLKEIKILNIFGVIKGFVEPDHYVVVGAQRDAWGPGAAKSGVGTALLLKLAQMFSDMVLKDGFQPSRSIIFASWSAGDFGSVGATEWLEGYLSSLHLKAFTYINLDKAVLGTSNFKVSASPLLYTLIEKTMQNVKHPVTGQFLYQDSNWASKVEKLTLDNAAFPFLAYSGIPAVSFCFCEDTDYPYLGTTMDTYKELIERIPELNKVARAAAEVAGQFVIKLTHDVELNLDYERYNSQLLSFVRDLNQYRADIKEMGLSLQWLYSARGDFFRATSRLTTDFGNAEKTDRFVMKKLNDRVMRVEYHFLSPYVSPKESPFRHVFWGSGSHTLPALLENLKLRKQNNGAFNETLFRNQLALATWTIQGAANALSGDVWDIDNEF
The assay can be described thus: ELISA on immobilized chimeric TfR.
Description: (§3) ELISA was carried out by the following method. To a 96-well immunoplate (NUNC, Inc.) on which an antigen protein was immobilized, 1% (w/v) BSA-PBS(−) pH 7.0 without KCl (hereinafter referred to as blocking solution, Nacalai Tesque, Inc.) was added to perform blocking at room temperature, and thereafter, the anti-TfR antibody diluted with the same solution was added thereto and a reaction was allowed to proceed at room temperature for 1 hour. Thereafter, washing was performed with 0.05% (w/v)-tPBS (1×) without KCl (pH 7.2) (hereinafter referred to as washing solution, Nacalai Tesque, Inc.), Anti-Human IgG (Fc) Goat IgG Fab″-HRP (IBL, Inc.) diluted with the blocking solution was added thereto, and a reaction was allowed to proceed at room temperature for 1 hour. Thereafter, washing was performed with the washing solution, and 1-Step (registered trademark) Ultra TMB-ELISA Substrate Solution (Thermo, Inc.) was added thereto, and a reaction was allowed to proceed at room temperature. The coloring reaction was stopped by adding a 5 N HCl solution, and an absorbance at a wavelength of 450 nm (reference wavelength: 570 nm) was measured using a plate reader (EPOCH 2: BioTek Instruments, Inc.).
(§4) Further, a value obtained by subtracting the absorbance at the reference wavelength of 570 nm from the absorbance at a wavelength of 450 nm was regarded as the binding activity to any of various types of antigen proteins, and a case where a value obtained by dividing the binding activity to any of various types of chimeric TfR by the binding activity to His-huTfR was 0.5 or more was denoted by ++, a case where the value was 0.2 or more and less than 0.5 was denoted by +, and a case where the value was less than 0.2 was denoted by −.

The target in another assay is T6, chimeric TfR A02 (human/mouse chimera, UniProt P02786 89-760).
T6 construct: also called D352S-S355A-D356R-K358N
T6 chain: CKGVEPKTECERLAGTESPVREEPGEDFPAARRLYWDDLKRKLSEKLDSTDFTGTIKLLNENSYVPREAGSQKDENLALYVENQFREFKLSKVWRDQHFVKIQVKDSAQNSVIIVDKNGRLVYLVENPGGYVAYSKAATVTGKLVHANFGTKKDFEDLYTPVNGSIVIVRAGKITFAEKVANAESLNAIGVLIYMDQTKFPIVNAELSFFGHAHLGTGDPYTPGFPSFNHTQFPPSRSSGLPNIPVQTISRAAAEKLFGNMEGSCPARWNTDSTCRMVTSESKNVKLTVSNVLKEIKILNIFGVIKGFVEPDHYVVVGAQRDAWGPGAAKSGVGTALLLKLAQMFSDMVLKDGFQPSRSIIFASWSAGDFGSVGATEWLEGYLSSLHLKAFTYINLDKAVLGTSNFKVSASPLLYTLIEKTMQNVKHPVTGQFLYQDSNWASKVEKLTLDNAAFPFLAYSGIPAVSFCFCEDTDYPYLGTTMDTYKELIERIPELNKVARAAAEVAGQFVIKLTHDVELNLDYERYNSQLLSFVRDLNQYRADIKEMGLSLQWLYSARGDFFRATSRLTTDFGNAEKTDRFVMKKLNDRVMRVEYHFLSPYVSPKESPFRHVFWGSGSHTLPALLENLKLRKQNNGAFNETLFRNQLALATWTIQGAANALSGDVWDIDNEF
Description: ELISA on immobilized chimeric TfR.

Another assay addresses T7, chimeric TfR A07 (human/mouse chimera, UniProt P02786 89-760).
T7 construct: also called M365L-V366E-E369Q
Description: ELISA on immobilized chimeric TfR.

A further assay concerns the target T8, chimeric TfR A14 (human/mouse chimera, UniProt P02786 89-760).
T8 construct: also called D204Q-K205S-E369Q
The assay can be described thus: ELISA on immobilized chimeric TfR.

A further assay addresses T9, monkey TfR on CHO cells (monkey).
T9 construct: also called monkey TfR/CHO cells
T9 chain: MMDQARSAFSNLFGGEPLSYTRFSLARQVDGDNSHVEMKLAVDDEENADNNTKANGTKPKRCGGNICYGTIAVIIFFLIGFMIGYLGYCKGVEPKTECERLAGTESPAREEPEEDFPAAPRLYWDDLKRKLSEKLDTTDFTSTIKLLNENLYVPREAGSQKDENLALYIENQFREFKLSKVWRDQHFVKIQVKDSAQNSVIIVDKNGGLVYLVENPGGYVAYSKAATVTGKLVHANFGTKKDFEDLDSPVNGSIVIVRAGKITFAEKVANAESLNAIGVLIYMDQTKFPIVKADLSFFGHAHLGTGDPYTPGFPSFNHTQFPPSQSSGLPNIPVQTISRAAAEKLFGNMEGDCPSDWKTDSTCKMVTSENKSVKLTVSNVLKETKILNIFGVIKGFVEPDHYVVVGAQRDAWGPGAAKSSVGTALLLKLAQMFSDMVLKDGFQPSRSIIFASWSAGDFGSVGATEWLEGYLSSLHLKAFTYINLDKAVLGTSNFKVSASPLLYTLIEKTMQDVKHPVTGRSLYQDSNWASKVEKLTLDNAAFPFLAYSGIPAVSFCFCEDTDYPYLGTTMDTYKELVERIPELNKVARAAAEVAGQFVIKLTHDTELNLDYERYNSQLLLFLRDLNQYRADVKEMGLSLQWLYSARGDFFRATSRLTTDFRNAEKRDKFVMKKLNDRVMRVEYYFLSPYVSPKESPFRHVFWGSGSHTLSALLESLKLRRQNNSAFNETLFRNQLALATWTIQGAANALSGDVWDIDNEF
The assay can be described thus: flow cytometry of monoclonal phage (scFv) on monkey TfR/CHO cells.

In assay [8] the target is T10, huTfR with mouse protease-like domain (human/mouse chimera).
T10 construct: His tag added; also called chimeric protein of human TfR extracellular domain with mouse protease-like domain
T10 chain: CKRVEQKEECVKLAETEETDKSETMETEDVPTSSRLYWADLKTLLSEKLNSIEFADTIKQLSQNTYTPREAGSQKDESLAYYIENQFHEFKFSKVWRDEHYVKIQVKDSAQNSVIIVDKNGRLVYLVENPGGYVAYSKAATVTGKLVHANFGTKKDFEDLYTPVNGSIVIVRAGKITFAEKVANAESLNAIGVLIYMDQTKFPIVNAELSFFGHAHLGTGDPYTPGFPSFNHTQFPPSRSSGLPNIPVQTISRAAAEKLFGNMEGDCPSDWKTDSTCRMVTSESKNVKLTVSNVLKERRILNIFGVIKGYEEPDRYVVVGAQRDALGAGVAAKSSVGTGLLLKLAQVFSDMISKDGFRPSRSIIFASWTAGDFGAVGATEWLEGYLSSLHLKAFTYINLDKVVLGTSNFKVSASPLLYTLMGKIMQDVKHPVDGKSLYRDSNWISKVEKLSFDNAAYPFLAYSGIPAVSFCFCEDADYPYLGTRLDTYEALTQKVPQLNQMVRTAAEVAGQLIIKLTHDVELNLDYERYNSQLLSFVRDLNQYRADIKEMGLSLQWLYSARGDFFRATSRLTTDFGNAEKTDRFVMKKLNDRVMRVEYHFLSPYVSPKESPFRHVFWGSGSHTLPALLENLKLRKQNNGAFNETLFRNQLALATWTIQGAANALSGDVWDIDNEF
Description: ELISA on immobilized chimeric TfR; grade = binding relative to His-huTfR (++ 0.5 or more, + 0.2 to less than 0.5).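 Also: Anti-TfR antibodies incubated 1 h at room temperature on plate-coated antigen, bound antibody detected via HRP-labelled anti-human IgG Fc with TMB substrate.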
Description: as §3, §4

Another assay has as its target T11, chimeric TfR A03 (human/mouse chimera, UniProt P02786 89-760).
T11 construct: also called D245E-K261E
Described as above.

The next assay deals with T12, chimeric TfR A04 (human/mouse chimera, UniProt P02786 89-760).
T12 construct: also called D245E-K261E-D356R
Described as above.

Another assay concerns the target T13, chimeric TfR A05 (human/mouse chimera, UniProt P02786 89-760).
T13 construct: also called P249S-L274F
Described as above.

Description for chimeric TfR A02: as §3, §4
Description for chimeric TfR A03: as §3, §4
Description for chimeric TfR A04: as §3, §4
Description for chimeric TfR A05: as §3, §4
Description for chimeric TfR A07: as §3, §4
Description for chimeric TfR A14: as §3, §4
Description for monkey EGFR-FLAG-Fc: as §1, §2
Description for monkey TfR on CHO cells: After the reaction was allowed to proceed under 4° C. for 30 minutes, each well was washed 3 times with PBS-T.
Description for mouse TfR on CHO cells: Subsequently, an epitope analysis for various types of TfR antibodies was carried out.

B1: E12 (antibody, V domains shown)
VH: QVQLVESGGGLVQPGGSLRLSCAASRFTFSAYAMGWVRQAPGKGLEWVSIIDSGGVYTYYADSMKGRFTISRDNSKNTLYLQMNSLRAEDTAVYYCARDHYGVVWGLGDYWGQGTLVTVSS
VL: not shown
notes: also called anti-EGFR antibody E12; Clone E12
As to B1, the binding result in the assay with human EGFR-FLAG-Fc [1], with monkey EGFR-FLAG-Fc and with human EGFR on cells [2] was “binds” throughout.

B2: E17 (antibody, V domains shown)
VH: QVQLQQWGAGLLKPSETLSLTCALYSGSFSAQDWSWIRQSPEKGLEWIGEIWQGGKTNYNPSLKSRVSISRDNSKNQLSLQLSSVTAADTAVYYCARVDWSYRVFEIWGQGTMVTVSS
VL: not shown
notes: also called anti-EGFR antibody E17
Regarding B2, the binding result with human EGFR-FLAG-Fc [1], in the assay with monkey EGFR-FLAG-Fc and with human EGFR on cells [3] was “binds” each time.

B3: E08 (antibody, V domains shown)
VH: EVQLVESGGGLVQPGGSLRLSCAASGFSFNNNAMNWVRQAPGKGLEWVSGIRADGGTTYYADSVKGRFTISRDNSKNTLYLQMNSLRAEDTAVYFCGKTPDWEIFYYAMDAWGQGTTVTVSS
VL: not shown
notes: also called anti-EGFR antibody E08; Clone E08
Take B3: the binding result with human EGFR-FLAG-Fc [1], in the assay with monkey EGFR-FLAG-Fc and with human EGFR on cells [4] was “binds” each time.

B4: KME07 (antibody, V domains shown)
VH: QVQLVQSGAEVKKPGSSVKVSCKASGGTFSSFAFGWVRQAPGQGLEWMGEVRPGFGTEILTQNFQDRVTITADESTSTTYMELRSLKSEDTAVYYCARGLLRGGYIENPFEIWGQGTLVTVSS
VL: DIQMTQSPSSLSASVGDRVTITCRASQGISSWLAWYQQKPEKAPKSLIYAASSLQSGVPSRFSGSGSGTDFTLTISSLQPEDFATYFCQQYYNYPYTFGQGTKLEIK
notes: IgG4PE or IgG4PE R409K; also called anti-EGFR antibody KME07
For B4, the binding result in the assay with human EGFR on cells [5] is “binds”.

B5: KME11 (antibody, V domains shown)
VH: QVQLVQSGAEVKKPGSSVKVSCKASGGTLSTYGITWVRQAPGQGFAWMGEIIPSLGIVNYAQKFQGRVTITADESTSTVYMELSSVTYEDTAVYYCAGDELSEGHSEYYHGMDVWGQGTTVTVSS
VL: B4 VL
notes: IgG4PE or IgG4PE R409K; also called anti-EGFR antibody KME11; KME1l
Consider B5, for which the binding result with human EGFR-FLAG-Fc [6] is on record as “binds”.

B6: cyno186 (antibody, V domains shown)
VH: QVQLVESGGEFVQPGGSLRLSCAASGFPFKGYAMNWVRQAPGKGLEWVSRISNGGSYIDYADSVKGRFTISRDNSKNTLYLQIDSLRTEDTAVYYCAKAKDAYRWNNAIDEWGQGTLVTVSS
VL: not shown
notes: also called anti-TfR antibody cyno186
Turning to B6, the figures for the binding result with mouse TfR on CHO cells and with monkey TfR on CHO cells were “no binding” and “binds”, respectively. The “ratio of ELISA binding activity (A450-A570) to chimeric TfR over that to His-huTfR” value in assay [7] is under 0.2 ratio; with chimeric TfR A02, under 0.2 ratio; with chimeric TfR A07 it was under 0.2 ratio; with chimeric TfR A14, under 0.2 ratio; in assay [8] it was at least 0.5 ratio; in the assay with chimeric TfR A03, at least 0.5 ratio. In addition, the “ratio of ELISA binding activity (A450-A570) to chimeric TfR over that to His-huTfR” value with chimeric TfR A04 was 0.2 to 0.5 ratio; with chimeric TfR A05, at least 0.5 ratio.
